Reference: publication PMC2173853 (The Journal of Cell Biology, 2002)

T1: GST–Ykt6p (amino acids 1–195) (S. cerevisiae, UniProt P36015 1-195)
T1 sequence: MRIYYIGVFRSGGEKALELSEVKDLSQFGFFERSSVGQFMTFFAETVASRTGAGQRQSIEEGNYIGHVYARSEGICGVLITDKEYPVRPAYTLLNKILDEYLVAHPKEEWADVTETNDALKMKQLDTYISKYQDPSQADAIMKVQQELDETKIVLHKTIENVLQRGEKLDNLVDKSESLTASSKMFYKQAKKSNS

T2: heterodimeric GST–Sed5p–His10-Sly1p complex bound to beads (S. cerevisiae, UniProt Q01590;P22213)
T2 sequence 1: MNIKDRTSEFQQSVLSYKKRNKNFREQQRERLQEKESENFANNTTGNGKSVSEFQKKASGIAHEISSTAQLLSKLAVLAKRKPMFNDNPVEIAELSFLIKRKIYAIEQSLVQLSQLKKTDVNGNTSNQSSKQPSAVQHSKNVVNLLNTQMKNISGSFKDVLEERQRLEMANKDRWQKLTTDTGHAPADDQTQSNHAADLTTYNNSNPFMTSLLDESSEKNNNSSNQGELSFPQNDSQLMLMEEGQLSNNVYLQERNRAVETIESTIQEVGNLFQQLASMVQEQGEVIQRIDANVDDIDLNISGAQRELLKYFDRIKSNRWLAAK
T2 sequence 2: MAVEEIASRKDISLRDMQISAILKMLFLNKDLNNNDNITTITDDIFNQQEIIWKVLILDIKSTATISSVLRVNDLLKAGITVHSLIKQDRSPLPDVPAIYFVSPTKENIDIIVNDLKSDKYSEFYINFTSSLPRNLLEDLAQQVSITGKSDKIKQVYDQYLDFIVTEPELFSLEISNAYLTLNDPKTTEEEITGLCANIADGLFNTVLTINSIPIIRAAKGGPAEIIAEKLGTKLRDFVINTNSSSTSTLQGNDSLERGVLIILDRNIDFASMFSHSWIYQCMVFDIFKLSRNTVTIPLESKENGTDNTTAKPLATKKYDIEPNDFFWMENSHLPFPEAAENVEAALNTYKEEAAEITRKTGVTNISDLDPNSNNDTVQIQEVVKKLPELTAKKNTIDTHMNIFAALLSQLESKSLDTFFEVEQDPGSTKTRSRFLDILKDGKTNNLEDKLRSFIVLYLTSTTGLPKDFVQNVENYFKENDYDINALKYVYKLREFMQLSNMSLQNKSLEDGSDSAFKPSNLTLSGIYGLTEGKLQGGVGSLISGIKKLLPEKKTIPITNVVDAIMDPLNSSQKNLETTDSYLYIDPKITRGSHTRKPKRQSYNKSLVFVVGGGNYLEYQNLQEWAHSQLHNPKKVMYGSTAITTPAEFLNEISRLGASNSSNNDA

T3: His10-Sly1p (NH2-terminally His10-tagged full-length Sly1p) (S. cerevisiae, UniProt P22213 1-666)
T3 sequence: T2 sequence 2

B1: His6-Sec22p (amino acids 1–188) (domain or fragment)
chain: MIKSTLIYREDGLPLCTSVDNENDPSLFEQKQKVKIVVSRLTPQSATEATLESGSFEIHYLKKSMVYYFVICESGYPRNLAFSYLNDIAQEFEHSFANEYPKPTVRPYQFVNFDNFLQMTKKSYSDKKVQDNLDQLNQELVGVKQIMSKNIEDLLYRGDSLDKMSDMSSSLKETSKRYRKSAQKINFD
B2: GST–Sed5p (entire cytosolic region) (domain or fragment)
chain: T2 sequence 1

Legend:
Assay in all cases: pull-down
[1] = biological target: T1, GST–Ykt6p (amino acids 1–195)
[2] = biological target: T2, heterodimeric GST–Sed5p–His10-Sly1p …
[3] = biological target: B2
[4] = biological target: T3, His10-Sly1p (NH2-terminally …)

Binder | binding result [1] | stoichiometry N [2] [per Sed5p] | stoichiometry N [3] [per Sed5p] | binding result [4]
B1 | binds | 1.4 | 1.3 | 
B2 |  |  |  | binds
